Measured values published in US20230272067A1 (published 2023).
Like-named read-outs stand apart in the source and are kept apart here.

T1: extracellular domain (ECD) of mouse TIGIT (mouse, UniProt P86176 29-148, biotinylated (site not stated))
T1 chain: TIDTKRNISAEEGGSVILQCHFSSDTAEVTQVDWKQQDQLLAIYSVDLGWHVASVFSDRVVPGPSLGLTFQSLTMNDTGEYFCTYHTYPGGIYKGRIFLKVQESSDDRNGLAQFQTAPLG

T2: extracellular domain (ECD) of human TIGIT (human, UniProt Q495A1 22-141, biotinylated (site not stated))
T2 chain: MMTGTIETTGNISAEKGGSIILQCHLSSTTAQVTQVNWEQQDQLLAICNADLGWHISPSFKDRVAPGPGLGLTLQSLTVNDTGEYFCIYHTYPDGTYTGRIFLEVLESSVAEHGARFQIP


Experiments:
[1] = biological target: T1, extracellular domain (ECD) of mouse …; experiment: SPR (Biacore T200, multi-cycle)
[2] = biological target: T2, extracellular domain (ECD) of human …; experiment: SPR (Biacore T200, multi-cycle)
[3] = biological target: T1, extracellular domain (ECD) of mouse …; experiment: SPR (Biacore T200, multi-cycle)
[4] = biological target: T2, extracellular domain (ECD) of human …; experiment: SPR (Biacore T200, multi-cycle)
[5] = biological target: T2, extracellular domain (ECD) of human …; experiment: competition ELISA; competition with hCD112
[6] = biological target: T2, extracellular domain (ECD) of human …; experiment: competition ELISA; competition with hCD155
[7] = biological target: T1, extracellular domain (ECD) of mouse …; experiment: competition ELISA; competition with mCD155

Row | Kd [1] | Kd [2] | Kd [3] | Kd [4] | IC50 [5] | IC50 [6] | IC50 [7] | Binder
1 | 2.74 nM | 8.75 nM | – | – | – | – | – | T4M (antibody, V domains shown) VH: QVQLQQWGAGLLKPSETLSLTCAVYGGSFNDYYWTWIRQAPGKGLEWIGEITHSGSADYNPSLKSRVTISVDTSKNQFSLKLRSVTAADTAVYYCARGLKLFRWKKTTVTTFPPYYYGMDVWGQGTTVTVSS VL: not shown
2 | – | – | 21.6 nM | 3.49 nM | – | – | – | CS19ME3-23 (antibody, V domains shown) VH: EVQLLESGGGLVQPGGSLRLSCAASGFTFSSYAMHWVRQAPGKGLEWVAVISYDGSNKYYADSVKGRFTISRDNSKNTLYLQMNSLRAEDTAVYYCATLEGGGRYYDFWSADYWGQGTLVTVSS VL: QSALTQPRSVSGSPGQSVTISCTGTSSDVGGYNFVSWYQQHPGKAPKLLIYAVSKRPSGVPDRFSGSKSGNTASLTISGLQAEDEADYYCSSYSSESTRVVFGGGTKLTVL
3 | – | – | 2.85 nM | 3.36 nM | 0.9 µg/mL | 1.18 µg/mL | 0.67 µg/mL | CS19ME3-30-N (antibody, V domains shown) VH: QVQLVESGGGVVQPGRSLRLSCAASGFTFSSYAMHWVRQAPGKGLEWVAVISYDGSNKYYADSVKGRFTISRDNSKNTLYLQMNSLRAEDTAVYYCATLEGGGRYYDFWSADYWGQGTLVTVSS VL: QSALTQPRSVSGSPGQSVTISCTGTSSDVGGYNFVSWYQQHPGKAPKLLIYAVSNRPSGVPDRFSGSKSGNTASLTISGLQAEDEADYYCSSYSSESTRVVFGGGTKLTVL
